Assay results published in patent US20120316071A1 (published 2012).

Tests used:
[1] = target: T1, rHuman IGF-1 sR, (IGF-1 sR), CF (R&D Systems Cat#391-GR) (human, UniProt P08069 31-932); experiment: Multispot ECL (MSD), antigen spotted on plate, Fab 145 nM; blank spot 357
T1 construct: Bought recombinant soluble receptor; also called insulin-like growth factor-1 soluble receptor

[2] = target: T2, Recombinant Human DLL4 (R&D Systems Cat#1506-D4/CF) (human, UniProt Q9NR61 27-524); experiment: as above
T2 construct: Bought recombinant protein; also called rHuman DLL4; delta-like protein 4

[3] = target: T3, rHuman EGF R/Fc Chimera, CF (R&D Systems Cat#344-ER) (human, UniProt P00533 25-645); experiment: as above
T3 construct: Bought recombinant protein; also called epidermal growth factor receptor; Fc part of the bought chimera not given

[4] = target: T4, rHuman HGF R/c-MET/Fc Chimera, CF (R&D Systems Cat#358-MT/CF) (human, UniProt P08581 25-932); experiment: as above
T4 construct: Bought recombinant protein; also called HGF R/Fc; hepatocyte growth factor receptor; Fc part of the bought chimera not given
T4 sequence (P08581 25-932, change not shown): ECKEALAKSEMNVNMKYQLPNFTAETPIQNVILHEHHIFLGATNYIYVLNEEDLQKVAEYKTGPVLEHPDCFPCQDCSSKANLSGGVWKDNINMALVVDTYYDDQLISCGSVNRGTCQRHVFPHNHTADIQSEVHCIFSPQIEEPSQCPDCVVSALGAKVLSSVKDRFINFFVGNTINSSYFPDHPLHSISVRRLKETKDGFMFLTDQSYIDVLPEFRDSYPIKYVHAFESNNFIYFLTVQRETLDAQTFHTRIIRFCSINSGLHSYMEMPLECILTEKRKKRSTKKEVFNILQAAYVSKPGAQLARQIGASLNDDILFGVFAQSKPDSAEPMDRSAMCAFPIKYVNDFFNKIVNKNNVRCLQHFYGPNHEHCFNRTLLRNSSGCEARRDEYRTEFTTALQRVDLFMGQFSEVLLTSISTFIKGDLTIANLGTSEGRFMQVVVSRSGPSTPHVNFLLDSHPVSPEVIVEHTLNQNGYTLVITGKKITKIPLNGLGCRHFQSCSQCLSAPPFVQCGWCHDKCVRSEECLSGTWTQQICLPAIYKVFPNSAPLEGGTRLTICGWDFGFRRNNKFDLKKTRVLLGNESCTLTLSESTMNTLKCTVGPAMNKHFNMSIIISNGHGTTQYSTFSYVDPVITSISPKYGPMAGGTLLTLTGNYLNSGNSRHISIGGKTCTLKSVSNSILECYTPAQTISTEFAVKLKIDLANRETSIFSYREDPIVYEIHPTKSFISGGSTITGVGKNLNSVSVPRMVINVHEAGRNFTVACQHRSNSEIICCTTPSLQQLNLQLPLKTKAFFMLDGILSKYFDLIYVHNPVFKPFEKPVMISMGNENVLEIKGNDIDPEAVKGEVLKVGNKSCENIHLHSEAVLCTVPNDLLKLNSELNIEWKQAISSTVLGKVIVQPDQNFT

[5] = target: T5, rHuman ErbB2/Fc Chimera, CF (R&D Systems Cat#1129-ER) (human, UniProt P04626 23-652); experiment: Multispot ECL (MSD), antigen spotted on plate, Fab 580 nM; blank spot 679
T5 construct: Bought recombinant protein; also called human epidermal growth factor 2 receptor; Fc part of the bought chimera not given

[6] = target: T1, rHuman IGF-1 sR, (IGF-1 sR), CF (R&D …); experiment: as above
[7] = target: T2, Recombinant Human DLL4 (R&D Systems …); experiment: as above
[8] = target: T3, rHuman EGF R/Fc Chimera, CF (R&D …); experiment: as above
[9] = target: T4, rHuman HGF R/c-MET/Fc Chimera, CF (R&D …); experiment: as above
[10] = target: T5, rHuman ErbB2/Fc Chimera, CF (R&D …); experiment: Multispot ECL (MSD), antigen spotted on plate, Fab 9.1 nM; blank spot 276
[11] = target: T1, rHuman IGF-1 sR, (IGF-1 sR), CF (R&D …); experiment: as above
[12] = target: T2, Recombinant Human DLL4 (R&D Systems …); experiment: as above
[13] = target: T3, rHuman EGF R/Fc Chimera, CF (R&D …); experiment: as above
[14] = target: T4, rHuman HGF R/c-MET/Fc Chimera, CF (R&D …); experiment: as above
[15] = target: T5, rHuman ErbB2/Fc Chimera, CF (R&D …); experiment: Multispot ECL (MSD), antigen spotted on plate, Fab 36.3 nM; blank spot 314
[16] = target: T1, rHuman IGF-1 sR, (IGF-1 sR), CF (R&D …); experiment: as above
[17] = target: T2, Recombinant Human DLL4 (R&D Systems …); experiment: as above
[18] = target: T3, rHuman EGF R/Fc Chimera, CF (R&D …); experiment: as above
[19] = target: T4, rHuman HGF R/c-MET/Fc Chimera, CF (R&D …); experiment: as above
[20] = target: T6, rHuman Notch-1/Fc Chimera, CF (R&D Systems Cat#3647-TK) (human, UniProt P46531 19-526); experiment: MSD Multispot ECL, antigen spotted on plate, Fab 57.5 nM; blank spot 954
T6 construct: Bought reagent; Fc part of the bought chimera not given

[21] = target: T7, rHuman Erythropoietin R/Fc Chimera, CF (R&D Systems Cat#963-ER) (human, UniProt P19235 25-250); experiment: as above
T7 construct: Bought reagent; also called EPO R/Fc; EPO R; Fc part of the bought chimera not given
T7 sequence (looked up): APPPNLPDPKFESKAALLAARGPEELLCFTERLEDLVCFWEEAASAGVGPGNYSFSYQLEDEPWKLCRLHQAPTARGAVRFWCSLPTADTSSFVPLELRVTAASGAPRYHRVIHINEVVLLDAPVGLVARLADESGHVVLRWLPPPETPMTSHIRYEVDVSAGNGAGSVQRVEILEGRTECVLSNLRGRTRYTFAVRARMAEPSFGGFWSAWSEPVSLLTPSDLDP

[22] = target: T8, rHuman IGF-1 sR, (IGF-1 sR), CF (R&D Systems Cat#391-GR) (human, UniProt P08069 31-932); experiment: as above
T8 construct: Bought soluble receptor; also called insulin-like growth factor-1 soluble receptor

[23] = target: T9, Recombinant Human DLL4 (R&D Systems Cat#1506-D4/CF) (human, UniProt Q9NR61 27-529); experiment: as above
T9 construct: Bought recombinant protein; also called rHuman DLL4; delta-like protein 4

[24] = target: T6, rHuman Notch-1/Fc Chimera, CF (R&D …); experiment: MSD Multispot ECL, antigen spotted on plate, Fab 230 nM; blank spot 1656
[25] = target: T7, rHuman Erythropoietin R/Fc Chimera, CF …; experiment: as above
[26] = target: T8, rHuman IGF-1 sR, (IGF-1 sR), CF (R&D …); experiment: as above
[27] = target: T9, Recombinant Human DLL4 (R&D Systems …); experiment: as above
[28] = target: T6, rHuman Notch-1/Fc Chimera, CF (R&D …); experiment: MSD Multispot ECL, antigen spotted on plate, Fab 14.375 nM; blank spot 738
[29] = target: T7, rHuman Erythropoietin R/Fc Chimera, CF …; experiment: as above
[30] = target: T8, rHuman IGF-1 sR, (IGF-1 sR), CF (R&D …); experiment: as above
[31] = target: T9, Recombinant Human DLL4 (R&D Systems …); experiment: as above
[32] = target: T6, rHuman Notch-1/Fc Chimera, CF (R&D …); experiment: MSD Multispot ECL, antigen spotted on plate, Fab 920 nM; blank spot 4082
[33] = target: T7, rHuman Erythropoietin R/Fc Chimera, CF …; experiment: as above
[34] = target: T8, rHuman IGF-1 sR, (IGF-1 sR), CF (R&D …); experiment: as above
[35] = target: T9, Recombinant Human DLL4 (R&D Systems …); experiment: as above
[36] = target: T10, Recombinant Human DLL4 (R&D Systems Cat#1506-D4/CF) (human, UniProt Q9NR61 27-524); experiment: control in the Notch reporter assay; binding assay not described
T10 construct: bought recombinant protein; also called rHuman DLL4; delta-like protein 4

B1: Fab VH4-34_IGHD7-27*01_IGHJ4*01 & V1-4_IGLJ4*01 (Fab, V domains shown)
VH: QVQLQQWGAGLLKPSETLSLTCAVYGGSFSGYYWSWIRQPPGKGLEWIGEINHSGSTNYNPSLKSRVTISVDTSKNQFSLKLSSVTAADTAVYYCARANWGDYFDYWGQGTLVTVSS
VL: QSALTQPASVSGSPGQSITISCTGTSSDVGGYNYVSWYQQHPGKAPKLMIYEVSNRPSGVSNRFSGSKSGNTASLTISGLQAEDEADYYCSSYTSSSTLFVFGGGTQLIIL
notes: Tested as a Fab made in E. coli; The heavy chain variable region was cloned into Plasmid A (CH1 constant region, His6 and Flag tags); The lambda light chain variable region was cloned into Plasmid E (lambda CL); Only the variable domains are tied to this Fab by name
With B1 the “ECL signal at 145 nM Fab” value [1] was 794, the “ECL signal at 145 nM Fab” value [2] was 2140 and the “ECL signal at 145 nM Fab” value [3] was 856. The “ECL signal at 145 nM Fab” value [4] was 1170, the “ECL signal at 580 nM Fab” value [5] was 1710 and the “ECL signal at 580 nM Fab” value [6] was 1360. For the same binder, the “ECL signal at 580 nM Fab” value [7] was 4420, the “ECL signal at 580 nM Fab” value [8] was 1630 and the “ECL signal at 580 nM Fab” value [9] was 2340. For the same binder, the “ECL signal at 9.1 nM Fab” value [10] was 987, the “ECL signal at 9.1 nM Fab” value [11] was 788 and the “ECL signal at 9.1 nM Fab” value [12] was 1030. For the same binder, the “ECL signal at 9.1 nM Fab” value [13] was 800, the “ECL signal at 9.1 nM Fab” value [14] was 894 and the “ECL signal at 36.3 nM Fab” value [15] was 1030. The “ECL signal at 36.3 nM Fab” value [16] was 799, the “ECL signal at 36.3 nM Fab” value [17] was 1400 and the “ECL signal at 36.3 nM Fab” value [18] was 831. The “ECL signal at 36.3 nM Fab” value [19] was 1060.

B2: Fab VH1-46_IGHD3-10*01_IGHJ4*01 & L12_IGKJ1*01 (Fab, V domains shown)
VH: QVQLVQSGAEVKKPGASVKVSCKASGYTFTSYYMHWVRQAPGQGLEWMGIINPSGGSTSYAQKFQGRVTMTRDTSTSTVYMELSSLRSEDTAVYYCAREYYYGSGSYYNDYFDYWGQGTLVTVSS
VL: not shown
notes: Tested as a Fab made in E. coli; VH was cloned into Plasmid A (CH1 with His6 and Flag tags) and the kappa VL into Plasmid C (kappa CL)
B2 was tested, and the ECL signal [20] was 5890, the ECL signal [21] was 4040 and the ECL signal [22] was 2830. The ECL signal [23] was 144000, the ECL signal [24] was 9740 and the ECL signal [25] was 6950. The ECL signal [26] was 4760, the ECL signal [27] was 119000 and the ECL signal [28] was 4210. For the same binder, the ECL signal [29] was 2720, the ECL signal [30] was 1750 and the ECL signal [31] was 125000. The ECL signal [32] was 20100, the ECL signal [33] was 16400 and the ECL signal [34] was 10200. For the same binder, the ECL signal [35] was 73600.

B3: control Fab VH6-1_IGHD6-13*01_IGHJ4*01 and V2-17_IGLJ2*01 (Fab, V domains shown)
VH: QVQLQQSGPGLVKPSQTLSLTCAISGDSVSSNSAAWNWIRQSPSRGLEWLGRTYYRSKWYNDYAVSVKSRITINPDTSKNQFSLQLNSVTPEDTAVYYCAREGYSSSWYDYFDYWGQGTLVTVSS
VL: SYELTQPPSVSVSPGQTARITCSGDALPKQYAYWYQQKPGQAPVLVIYKDSERPSGIPERFSGSSSGTTVTLTISGVQAEDEADYYCQSADSSGTYPVVFGGGTKLTVL
B3: no binding [36].
